Measurements taken from article doi:10.1101/2021.06.15.447100.

Columns and labels:
[1] = biological target: BG505 SOSIP.664 (HIV-1 (clade A, BG505)); test: SEC
[2] = biological target: C.1086 NFL gp140 (Native Flexibly Linked with I559P) (HIV-1 (clade C, C.1086)); test: SEC
[3] = biological target: C.1086 SOSIP gp140 (HIV-1 (clade C, C.1086)); test: SEC
[4] = biological target: C.1086 UFO gp140 (Uncleaved preFusion Optimized, no disulfide linkage between A501 and T605) (HIV-1 (clade C, C.1086)); test: negative stain electron microscopy
[5] = biological target: C.1086 UFO gp140 (Uncleaved preFusion Optimized, no disulfide linkage between A501 and T605) (HIV-1 (clade C, C.1086)); test: SEC

BG505 SOSIP.664 (natural protein)
stoichiometry N [1]: 3

C.1086 NFL gp140 (Native Flexibly Linked with I559P) (natural protein)
stoichiometry N [2]: 3

C.1086 SOSIP gp140 (natural protein)
stoichiometry N [3]: 3

C.1086 UFO gp140 (Uncleaved preFusion Optimized, no disulfide linkage between A501 and T605) (natural protein)
stoichiometry N [4]: 3 | stoichiometry N [5]: 3
